Data: the supplement of paper PMC10567573

B1: KLHDC10 (parent)
chain: CPIIRIPNRFLRGHRPPPARSGHR

Variants of: B1
Assay: protein stability index of a GFP-peptide fusion (GPS, HEK-293T) (PSI 1-6); higher = more stable
Conditions: c terminus: a fixed tail appended
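Further: lentivirally expressed fusions sorted by FACS into six bins by GFP to DsRed ratio, PSI derived from sequencing read proportions per bin multiplied by bin number.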

Protein stability index: each site, then its substitutions
S21: T 1.83; K 1.65; W 1.83; G 2.63; I 1.36; D 1.75; V 1.62; F 2.91; A 1.85; M 1.66; N 2.25; H 1.75; L 1.97; Q 1.42; R 1.97; P 1.94
P18: A 1.51; Y 1.91; I 2.17; R 1.63; C 1.82; V 2.27; K 2.5; G 2.95; Q 1.78; T 1.92; S 2.37; L 1.47; M 1.74; N 2.43; F 1.62; E 1.78; H 2.37; D 1.49; W 1.85
P16: K 3.27; M 2.33; V 1.23; D 1.72; N 2.56; H 1.92; R 1.2; Y 1.31; G 1.42; S 2.12; T 2.38; I 1.73; L 1.85; E 1.92; Q 2.1; C 2.5; F 1.9
R15: E 1.92; L 1.05; I 1.28; S 1.69; F 1.43; Q 2.44; N 2.3; M 1.84; K 2.19; C 1.68; D 2.11; T 1.73; W 1.47; A 1.3; V 1.84; G 1.69; Y 1.51
H23: K 1.5; Q 2.06; E 1.66; N 2.43; L 1.12; V 1.69; M 1.49; W 1.59; S 1.02; D 1.38; T 2.66; A 1.85; I 1.82; Y 2.01; G 2.02; F 1.52; R 1.67; P 1.67
G22: A 1.57; V 2.76; H 1.84; T 2.39; S 1.66; Q 1.33; E 1.78; R 2.17; M 1.91; L 2.02; K 1.71; N 1.95; D 2.62; C 1.62; Y 1.98; F 2.01; I 1.82
H14: P 2.15; V 2.46; S 2.07; M 1.87; K 2.57; R 1.76; T 1.74; W 2.89; N 1.89; L 1.32; Y 1.33
P17: F 1.81; T 1.64; A 2.28; V 3.32; S 2.27; R 2.34; K 2.98; W 1.97; G 2.09; I 1.93; N 2.2; L 2.28; M 1.8; Q 1.57; E 1.93; H 1.76; Y 2.55; C 1.21; D 1.63
A19: N 2.23; I 1.4; S 1.8; F 1.69; M 2.12; L 1.46; V 1.48; D 2.95; G 1.82; R 2.02; K 1.61; W 1.69; Q 1.48; H 3.04
R20: W 1.75; Q 1.93; F 2.81; D 2.73; M 2.13; G 1.95; A 2.48; V 2.62; L 2.45; T 2.51; P 2.16; C 1.48; I 1.38
R24: C 1.82; A 2.37; D 2.93; E 1.59; G 2.1; F 1.31
